Assay results published in paper PMC3390394.

Assays:
[1] = molecular target: Arabidopsis thaliana dihydrodipicolinate synthase 2 (At-DHDPS2) (Arabidopsis thaliana) (UniProt Q9FVC8); assay: AUC; sedimentation velocity, c(s) analysis (SEDFIT); 20 mM Tris-HCl, 150 mM NaCl, pH 8.0, 20°C; At-DHDPS2 at 0.75 mg/mL, 50,000 rpm; At-DHDPR2 at 0.1-1.6 mg/mL, 40,000 rpm
[2] = molecular target: Arabidopsis thaliana dihydrodipicolinate synthase 2 (At-DHDPS2) (Arabidopsis thaliana) (UniProt Q9FVC8); assay: SEC-MALS; Malvern P3000 column with Viscotek TDA (refractive index, low angle and right angle light scattering); 100 µL of 1.0 mg/mL; 20 mM Tris-HCl, 150 mM NaCl, pH 8.0; 28°C

Arabidopsis thaliana dihydrodipicolinate synthase 2 (At-DHDPS2), sequence (Q9FVC8 40-365): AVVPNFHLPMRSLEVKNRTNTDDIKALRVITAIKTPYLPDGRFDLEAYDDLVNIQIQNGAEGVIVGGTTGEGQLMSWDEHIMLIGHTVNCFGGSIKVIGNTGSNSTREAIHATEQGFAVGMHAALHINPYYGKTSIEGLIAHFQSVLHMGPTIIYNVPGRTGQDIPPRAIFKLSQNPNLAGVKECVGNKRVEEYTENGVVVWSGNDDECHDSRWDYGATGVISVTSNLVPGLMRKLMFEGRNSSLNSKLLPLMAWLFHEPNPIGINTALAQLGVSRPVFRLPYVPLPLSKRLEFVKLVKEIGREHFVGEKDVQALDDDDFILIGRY

stoichiometry N [1]: 4 | stoichiometry N [2]: 4
Substance: Arabidopsis thaliana dihydrodipicolinate synthase 2 (At-DHDPS2) (from UniProt Q9FVC8 40-365) (enzyme)
